The target of this experiment is complex III (ubiquinone cytochrome C oxidoreductase) (mouse (endogenous in cerebellum)) (UniProt Q9CZ13). As to the kind of experiment: native gel or EMSA; blue native PAGE (4 to 12% NativePAGE) of cerebellum mitochondria solubilised in 1% digitonin, WT and Mecr285/del10 mice; transferred to PVDF and immunoblotted; in-gel activity assays on parallel gels.

“complex III (ubiquinone cytochrome C oxidoreductase) (from UniProt Q9CZ13 35-480)”: the stoichiometry N came out at 2.
